Experimental data as given in the supplement of paper PMC11316812.
± gives the standard deviation of the averaged measurements.

Legend:
hTERT-HMEC = test: percentage of EdU-negative (G0-arrested) nuclei per well, 72 h; higher = more G0 arrest; conditions: reference: sequence is the full UniProt precursor, the tested protein was the secreted form or ectodomain
MCF7 = test: as above; conditions: reference: sequence is the full UniProt precursor, the tested protein was the secreted form or ectodomain
[1] = protein concentration 0.0225 µM
[2] = protein concentration 0.0345714 µM
[3] = protein concentration 0.345714 µM
[4] = protein concentration 0.0257143 µM
[5] = protein concentration 0.257143 µM
[6] = protein concentration 0.010965 µM
[7] = protein concentration 0.10965 µM
[8] = protein concentration 0.014515 µM
[9] = protein concentration 0.14515 µM
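Note: secreted proteins added to cultured cells, EdU pulse at the end, nuclei found by Hoechst imaging, EdU status from nuclear versus surrounding ring intensity ratio, PBS as neutral control.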

MRLPGVPLARPALLLLLPLLAPLLGTGAPAELRVRVRLPDGQVTEESLQADSDADSISLELRKPDGTLVSFTADFKKDVKVFRALILGELEKGQSQFQALCFVTQLQHNEIIPSEAMAKLRQKNPRAVRQAEEVRGLEHLHMDVAVNFSQGALLSPHLHNVCAEAVDAIYTRQEDVRFWLEQGVDSSVFEALPKASEQAELPRCRQVGDHGKPCVCRYGLSLAWYPCMLKYCHSRDRPTPYKCGIRSCQKSYSFDFYVPQRQLCLWDEDPYPG [Q86UD1]
percentage of EdU-negative (hTERT-HMEC; [1]): 4.6 ± 0.4%
percentage of EdU-negative (hTERT-HMEC; protein concentration 0.225 µM): 14.9 ± 2%
percentage of EdU-negative (MCF7; [1]): 26.92 ± 0.26%
percentage of EdU-negative (MCF7; protein concentration 0.225 µM): 29.75 ± 0.17%

MVAALLGGGGEARGGTVPGAWLCLMALLQLLGSAPRGSGLAHGRRLICWQALLQCQGEPECSYAYNQYAEACAPVLAQHGGGDAPGAAAAAFPASAASFSSRWRCPSHCISALIQLNHTRRGPALEDCDCAQDENCKSTKRAIEPCLPRTSGGGAGGPGAGGVMGCTEARRRCDRDSRCNLALSRYLTYCGKVFNGLRCTDECRTVIEDMLAMPKAALLNDCVCDGLERPICESVKENMARLCFGAELGNGPGSSGSDGGLDDYYDEDYDDEQRTGGAGGEQPLDDDDGVPHPPRPGSGAAASGGRGDLPYGPGRRSSGGGGRLAPRGAWTPLASILLLLLGPLF
percentage of EdU-negative (hTERT-HMEC; [1]): 4.96 ± 0.62%
percentage of EdU-negative (hTERT-HMEC; protein concentration 0.225 µM): 5.68 ± 0.97%
percentage of EdU-negative (MCF7; [1]): 24.6 ± 0.7%
percentage of EdU-negative (MCF7; protein concentration 0.225 µM): 26.9 ± 0.34%

METPAWPRVPRPETAVARTLLLGWVFAQVAGASGTTNTVAAYNLTWKSTNFKTILEWEPKPVNQVYTVQISTKSGDWKSKCFYTTDTECDLTDEIVKDVKQTYLARVFSYPAGNVESTGSAGEPLYENSPEFTPYLETNLGQPTIQSFEQVGTKVNVTVEDERTLVRRNNTFLSLRDVFGKDLIYTLYYWKSSSSGKKTAKTNTNEFLIDVDKGENYCFSVQAVIPSRTVNRKSTDSPVECMGQEKGEFREIFYIIGAVVFVVIILVIILAISLHKCRKAGVGQSWKENSPLNVS
percentage of EdU-negative (hTERT-HMEC; [2]): 4.27 ± 0.75%
percentage of EdU-negative (hTERT-HMEC; [3]): 6.032 ± 0.015%
percentage of EdU-negative (MCF7; [2]): 24.03 ± 0.11%
percentage of EdU-negative (MCF7; [3]): 22.3 ± 1.8%

MKLSGMFLLLSLALFCFLTGVFSQGGQVDCGEFQDPKVYCTRESNPHCGSDGQTYGNKCAFCKAIVKSGGKISLKHPGKC [Q6UWN8]
percentage of EdU-negative (hTERT-HMEC; [4]): 4.92 ± 0.69%
percentage of EdU-negative (hTERT-HMEC; [5]): 5.15 ± 0.39%
percentage of EdU-negative (MCF7; [4]): 24.2 ± 1.2%
percentage of EdU-negative (MCF7; [5]): 27.2 ± 3%

MARSLVCLGVIILLSAFSGPGVRGGPMPKLADRKLCADQECSHPISMAVALQDYMAPDCRFLTIHRGQVVYVFSKLKGRGRLFWGGSVQGDYYGDLAARLGYFPSSIVREDQTLKPGKVDVKTDKWDFYCQ
percentage of EdU-negative (hTERT-HMEC; [6]): 5.39 ± 0.091%
percentage of EdU-negative (hTERT-HMEC; [7]): 5.67 ± 0.4%
percentage of EdU-negative (MCF7; [6]): 26.1 ± 1.1%
percentage of EdU-negative (MCF7; [7]): 26.2 ± 1.9%

MASRLTLLTLLLLLLAGDRASSNPNATSSSSQDPESLQDRGEGKVATTVISKMLFVEPILEVSSLPTTNSTTNSATKITANTTDEPTTQPTTEPTTQPTIQPTQPTTQLPTDSPTQPTTGSFCPGPVTLCSDLESHSTEAVLGDALVDFSLKLYHAFSAMKKVETNMAFSPFSIASLLTQVLLGAGENTKTNLESILSYPKDFTCVHQALKGFTTKGVTSVSQIFHSPDLAIRDTFVNASRTLYSSSPRVLSNNSDANLELINTWVAKNTNNKISRLLDSLPSDTRLVLLNAIYLSAKWKTTFDPKKTRMEPFHFKNSVIKVPMMNSKKYPVAHFIDQTLKAKVGQLQLSHNLSLVILVPQNLKHRLEDMEQALSPSVFKAIMEKLEMSKFQPTLLTLPRIKVTTSQDMLSIMEKLEFFDFSYDLNLCGLTEDPDLQVSAMQHQTVLELTETGVEAAAASAISVARTLLVFEVQQPFLFVLWDQQHKFPVFMGRVYDPRA
percentage of EdU-negative (hTERT-HMEC; [8]): 5.48 ± 0.2%
percentage of EdU-negative (hTERT-HMEC; [9]): 5.33 ± 0.56%
percentage of EdU-negative (MCF7; [8]): 25.6 ± 1.5%
percentage of EdU-negative (MCF7; [9]): 26 ± 0.75%
